# Test results published in patent US20200255543A1 (ROCKEFELLER UNIVERSITY, published 2020).
# B1: monoclonal antibody M19 (antibody, V domains shown)
# VH: EVQLEESGPDLKKPGETVKISCKASNYTFTDYSMHWVKQAPGKGLKWVGWINTDTGEPTYADDFKGRFAFSLETSASTAYLQINNLKNEDTATYFCARWFGAMDYWGQGTSVTVSS
# VL: DIVITQSHKFMSTSVGDRVSITCKASQDVTNVVAWYQQKPGQSPKLLIYSASYRYTGVPDRFTGSGSGTDFTFTISSVQAEDLAVYYCQQYYRTPRTFGGGTKLEIKR
# notes: Mouse hybridoma monoclonal antibody; Hybridoma supernatant was used in the ELISA screen, purified antibody in biolayer interferometry; also called Mer-M19
# Legend:
# recombinant human MERTK [1] = target: T1, recombinant human MERTK (human, UniProt Q12866 21-505, limits assumed); assay: biolayer interferometry, M19 loaded on AMQ sensor at 1 ug/mL, hMer in solution at 5 nM, local 1:1 fit
# T1 construct: Analyte in solution in biolayer interferometry; also called hMer
# T1 sequence: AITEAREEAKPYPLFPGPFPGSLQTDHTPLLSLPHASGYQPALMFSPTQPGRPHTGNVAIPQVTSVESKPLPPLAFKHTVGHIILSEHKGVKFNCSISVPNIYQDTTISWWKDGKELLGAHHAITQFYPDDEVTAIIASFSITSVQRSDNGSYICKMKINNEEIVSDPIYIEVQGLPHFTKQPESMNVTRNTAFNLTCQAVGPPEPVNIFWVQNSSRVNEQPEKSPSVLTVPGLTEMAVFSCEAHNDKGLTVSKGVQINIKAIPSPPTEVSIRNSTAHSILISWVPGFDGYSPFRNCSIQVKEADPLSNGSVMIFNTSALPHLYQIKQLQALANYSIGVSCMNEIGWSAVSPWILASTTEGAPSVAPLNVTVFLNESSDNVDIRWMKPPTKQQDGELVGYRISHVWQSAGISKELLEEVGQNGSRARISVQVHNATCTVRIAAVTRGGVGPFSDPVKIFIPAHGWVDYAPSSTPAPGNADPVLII
# Method: (§1) FIG. 7: M19 binds to human MERTK with high affinity. A diagram showing antibody binding kinetics for M19 (Mer-M19) against human MERTK (hMer) using biolayer interferometry. Purified M19 was loaded on an AMQ sensor at a concentration of 1 microgram/mL to test binding against analytes in solution. All analytes were prepared at 5 nM with a 2-fold dilution series for a total of 7 concentrations. Kinetic fits were calculated using a 1:1 model, with Local fits for each concentration as well as an overall global fit.
# (§2) To characterize the binding affinity of M19 antibody against recombinant human and mouse MERTK, biomolecular interaction analysis was performed using biolayer interferometry (FIG. 7 and FIG. 8). Binding was observed between M19 and both mouse and human MERTK.
# recombinant human MERTK [2] = target: T1, recombinant human MERTK; assay: biolayer interferometry, M19 loaded on AMQ sensor at 1 ug/mL, hMer in solution at 1.25 nM, local 1:1 fit
# Method: as §1, §2
# recombinant mouse MERTK [3] = target: T2, recombinant mouse MERTK (mouse, UniProt Q60805 23-496, limits assumed); assay: biolayer interferometry, M19 loaded on AMQ sensor at 1 ug/mL, msMer in solution at 2.5 nM, local 1:1 fit
# T2 construct: Analyte in solution in biolayer interferometry; also called msMer; murine MERTK
# T2 sequence (looked up): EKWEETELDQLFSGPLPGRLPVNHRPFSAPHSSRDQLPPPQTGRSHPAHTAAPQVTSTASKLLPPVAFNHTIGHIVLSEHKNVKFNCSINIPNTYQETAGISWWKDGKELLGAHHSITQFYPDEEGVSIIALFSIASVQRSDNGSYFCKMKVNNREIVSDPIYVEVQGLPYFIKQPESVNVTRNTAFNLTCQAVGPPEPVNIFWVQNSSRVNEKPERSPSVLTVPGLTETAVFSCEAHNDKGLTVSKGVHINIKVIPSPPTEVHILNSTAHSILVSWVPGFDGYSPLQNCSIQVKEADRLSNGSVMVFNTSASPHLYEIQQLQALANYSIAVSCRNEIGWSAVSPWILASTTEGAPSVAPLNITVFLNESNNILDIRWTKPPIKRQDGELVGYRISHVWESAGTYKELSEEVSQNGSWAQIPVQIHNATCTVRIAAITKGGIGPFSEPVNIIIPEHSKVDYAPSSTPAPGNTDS
# Method: (§3) FIG. 8: M19 binds to murine MERTK with high affinity. A diagram showing antibody binding kinetics for M19 (Mer-M19) against murine MERTK (msMer) using biolayer interferometry. Purified M19 was loaded on an AMQ sensor at a concentration of 1 microgram/mL to test binding against analytes in solution. All analytes were prepared at 5 nM with a 2-fold dilution series for a total of 7 concentrations. Kinetic fits were calculated using a 1:1 model, with Local fits for each concentration as well as an overall Global fit.
# as §2
# recombinant human MERTK [4] = target: T1, recombinant human MERTK; assay: biolayer interferometry, M19 loaded on AMQ sensor at 1 ug/mL, hMer in solution at 0.625 nM, local 1:1 fit
# Method: as §1, §2
# recombinant mouse MERTK [5] = target: T2, recombinant mouse MERTK; assay: biolayer interferometry, M19 loaded on AMQ sensor at 1 ug/mL, msMer in solution at 1.25 nM, local 1:1 fit
# Method: as §3, §2
# recombinant human MERTK [6] = target: T1, recombinant human MERTK; assay: biolayer interferometry, M19 loaded on AMQ sensor at 1 ug/mL, hMer in solution at 0.0781 nM, local 1:1 fit
# Method: as §1, §2
# recombinant human MERTK [7] = target: T1, recombinant human MERTK; assay: biolayer interferometry, M19 loaded on AMQ sensor at 1 ug/mL, hMer in solution at 0.1563 nM, local 1:1 fit
# Method: as §1, §2
# recombinant mouse MERTK [8] = target: T2, recombinant mouse MERTK; assay: biolayer interferometry, M19 loaded on AMQ sensor at 1 ug/mL, msMer in solution at 0.625 nM, local 1:1 fit
# Method: as §3, §2
# recombinant mouse MERTK [9] = target: T2, recombinant mouse MERTK; assay: biolayer interferometry, M19 loaded on AMQ sensor at 1 ug/mL, msMer in solution at 0.0781 nM, local 1:1 fit
# Method: as §3, §2
# recombinant human MERTK [10] = target: T1, recombinant human MERTK; assay: biolayer interferometry, M19 loaded on AMQ sensor at 1 ug/mL, hMer in solution at 5 to 0.0781 nM, global 1:1 fit
# Method: as §1, §2
binder,measurement,setting,value
B1,Kd,recombinant human MERTK [1],0.246 nM
same,koff,recombinant human MERTK [1],0.000951 s⁻¹
same,kon,recombinant human MERTK [1],3.86e+06 M⁻¹ s⁻¹
same,Kd,recombinant human MERTK [2],0.297 nM
same,koff,recombinant human MERTK [2],0.00102 s⁻¹
same,kon,recombinant human MERTK [2],3.44e+06 M⁻¹ s⁻¹
same,Kd,recombinant mouse MERTK [3],0.341 nM
same,koff,recombinant mouse MERTK [3],0.00159 s⁻¹
same,kon,recombinant mouse MERTK [3],4.66e+06 M⁻¹ s⁻¹
same,Kd,recombinant human MERTK [4],0.155 nM
same,koff,recombinant human MERTK [4],0.00079 s⁻¹
same,kon,recombinant human MERTK [4],5.11e+06 M⁻¹ s⁻¹
same,Kd,recombinant mouse MERTK [5],0.282 nM
same,koff,recombinant mouse MERTK [5],0.00149 s⁻¹
same,kon,recombinant mouse MERTK [5],5.27e+06 M⁻¹ s⁻¹
same,Kd,recombinant human MERTK [6],0.0765 nM
same,koff,recombinant human MERTK [6],0.000934 s⁻¹
same,kon,recombinant human MERTK [6],1.22e+07 M⁻¹ s⁻¹
same,Kd,recombinant human MERTK [7],0.621 nM
same,koff,recombinant human MERTK [7],0.000949 s⁻¹
same,kon,recombinant human MERTK [7],1.53e+06 M⁻¹ s⁻¹
same,Kd,recombinant mouse MERTK [8],0.198 nM
same,koff,recombinant mouse MERTK [8],0.00137 s⁻¹
same,kon,recombinant mouse MERTK [8],6.92e+06 M⁻¹ s⁻¹
same,Kd,recombinant mouse MERTK [9],0.0472 nM
same,koff,recombinant mouse MERTK [9],0.00108 s⁻¹
same,kon,recombinant mouse MERTK [9],2.29e+07 M⁻¹ s⁻¹
same,koff,recombinant human MERTK [10],0.001 s⁻¹
same,kon,recombinant human MERTK [10],3.08e+06 M⁻¹ s⁻¹
